In publication PMC9897478:

Target: Desulfofustis deltaproteobacterium ligand-gated ion channel (DeCLIC) (Desulfofustis deltaproteobacterium)
Test: cryo-EM structure; DeCLIC in DDM detergent micelles, pH 7, two datasets: with 10 mM Ca2+ and Ca2+-free (chelated); C5 symmetry; homopentamer

stoichiometry N: 5
Substance: Desulfofustis deltaproteobacterium ligand-gated ion channel (DeCLIC) (natural protein)
